Several values for one entry are separate records, joined by “and”; a condition that tells them apart may be missing. Identical values can stand only once. Each block holds one molecule with its values, some of them ahead of it.
Experiments:
[1] = molecular target: adiponectin secreted from isolated rat primary adipocytes (rat (endogenous in primary adipocytes)); experiment: native gel or EMSA
SEC = molecular target: the molecule itself; experiment: SEC
native gel or EMSA [2] = molecular target: the molecule itself; experiment: native gel or EMSA
[3] = molecular target: the molecule itself; experiment: non-reducing denaturing SDS/PAGE
native gel or EMSA [4] = molecular target: the molecule itself; experiment: native gel or EMSA; remark: listed apart in the source

stoichiometry N [1]: 6 and 3
Molecule: adiponectin secreted from isolated rat primary adipocytes (natural protein)

B1: adiponectin purified from bovine serum (natural protein, UniProt Q3Y5Z3 18-240, looked up)
chain: EDNMEDPPLPKGACAGWMAGIPGHPGHNGTPGRDGRDGTPGEKGEKGDPGLVGPKGDTGETGITGIEGPRGFPGTPGRKGEPGESAYVYRSAFSVGLERQVTVPNVPIRFTKIFYNQQNHYDGTTGKFLCNIPGLYYFSYHITVYLKDVKVSLYKNDKALLFTHDQFQDKNVDQASGSVLLYLEKGDQVWLQVYEGENHNGVYADNVNDSTFTGFLLYHNIVE
stoichiometry N (SEC): 6

B2: FLAG epitope-tagged mouse adiponectin (natural protein, UniProt Q60994 18-247, looked up)
chain: EDDVTTTEELAPALVPPPKGTCAGWMAGIPGHPGHNGTPGRDGRDGTPGEKGEKGDAGLLGPKGETGDVGMTGAEGPRGFPGTPGRKGEPGEAAYVYRSAFSVGLETRVTVPNVPIRFTKIFYNQQNHYDGSTGKFYCNIPGLYYFSYHITVYMKDVKVSLFKKDKAVLFTYDQYQEKNVDQASGSVLLHLEVGDQVWLQVYGDGDHNGLYADNVNDSTFTGFLLYHDTN
stoichiometry N (native gel or EMSA [2]): 6 and 3
stoichiometry N [3]: 2

B3: adiponectin of differentiated 3T3-L1 adipocytes (natural protein, mouse (endogenous in 3T3-L1), UniProt Q60994 18-247, looked up)
chain: B2 chain
stoichiometry N (native gel or EMSA [4]): 6 and 3

— article PMC3497731 (Bioscience Reports, 2012)
